From article doi:10.1101/2025.02.28.640611 (bioRxiv, 2025)

Target: the molecule itself
Assay: cross-linking

B1: S. mutans ClpX with a C-terminal hexahistidine tag (enzyme)
chain: not shown
- stoichiometry N: 6
